In the Human Domainome abundance scans (Beltran et al. 2025) one finds abundance fitness data, which are given here for 55 variants.

± gives the uncertainty stated by the source.

B1: Pyruvate dehydrogenase protein X component, mitochondrial, residues 181 to 227; numbered along this chain, O00330 (parent)
chain: RFRLSPAARNILEKHSLDASQGTATGPRGIFTKEDALKLVQLKQTGK

The variants in this series derive from B1. As to the kind of experiment: abundance fitness (aPCA) (normalised: wild type 0, dead -1); higher = more abundant; growth selection in yeast, the domain comes from the species named. The following applies: Homo sapiens.
In the case of RFRLSPAARNILEKHSLDASQGTNTGPRGIFTKEDALKLVQLKQTGK [A24N], the abundance fitness was -0.31 ± 0.07.

In the case of RFRLSPAARNILEKHSLDASQGTLTGPRGIFTKEDALKLVQLKQTGK [A24L], the abundance fitness is -0.532 ± 0.051.

As for RFRLSPAARNILEKHSLDASQGTTTGPRGIFTKEDALKLVQLKQTGK [A24T], the abundance fitness was -0.423 ± 0.051.

In the case of RFRLSPAARNILEKHSLDASQGTETGPRGIFTKEDALKLVQLKQTGK [A24E], the abundance fitness is -0.333 ± 0.082.

As to RFRLSPAARNILEKHSLDASQGTATDPRGIFTKEDALKLVQLKQTGK [G26D], the abundance fitness was -0.444 ± 0.056.

With RFRLSPAARNILEKHSLDASQGTATSPRGIFTKEDALKLVQLKQTGK [G26S], the abundance fitness was -0.608 ± 0.068.

Consider RFRLSPAARNILEKHSLDASQGTATCPRGIFTKEDALKLVQLKQTGK [G26C], for which the abundance fitness was -0.903 ± 0.12.

Consider RFRLSPAARNILEKHSLDASQGTATLPRGIFTKEDALKLVQLKQTGK [G26L], for which the abundance fitness was -0.516 ± 0.057.

On to RFRLSPAARNILEKHSLDASQGTATQPRGIFTKEDALKLVQLKQTGK [G26Q], for which the abundance fitness is -0.483 ± 0.077.

Regarding RFRLSPAARNILEKHSLDASQGTATEPRGIFTKEDALKLVQLKQTGK [G26E], the abundance fitness is -0.539 ± 0.085.

For RFRLSPAARNILEKHSLDASQGTATFPRGIFTKEDALKLVQLKQTGK [G26F], the abundance fitness was -0.642 ± 0.081.

For RFRLSPAARNILEKHSLDASQGTATAPRGIFTKEDALKLVQLKQTGK [G26A], the abundance fitness was -0.603 ± 0.056.

As for RFRLSPAARNILEKHSLDASQGTATYPRGIFTKEDALKLVQLKQTGK [G26Y], the abundance fitness was -0.8 ± 0.17.

As for RFRLSPAARNILEKHSLDASQGTATMPRGIFTKEDALKLVQLKQTGK [G26M], the abundance fitness was -0.435 ± 0.069.

With RFRLSPAARNILEKHSLDASQGTATHPRGIFTKEDALKLVQLKQTGK [G26H], the abundance fitness was -0.46 ± 0.043.

Regarding RFRLSPAARNILEKHSLDASQGTATNPRGIFTKEDALKLVQLKQTGK [G26N], the abundance fitness is -0.505 ± 0.096.

For RFRLSPAARNILEKHSLDASQGTATKPRGIFTKEDALKLVQLKQTGK [G26K], the abundance fitness was -0.571 ± 0.055.

On to RFRLSPAARNILEKHSLDASQGTATWPRGIFTKEDALKLVQLKQTGK [G26W], for which the abundance fitness was -0.874 ± 0.057.

Consider RFRLSPAARNILEKHSLDASQGTATPPRGIFTKEDALKLVQLKQTGK [G26P], for which the abundance fitness is -0.55 ± 0.076.

For RFRLSPAARNILEKHSLDASQGTATVPRGIFTKEDALKLVQLKQTGK [G26V], the abundance fitness is -0.489 ± 0.043.

RFRLSPAARNILEKHSLDASQGVATGPRGIFTKEDALKLVQLKQTGK [T23V]: the abundance fitness is 0.006 ± 0.058.

Consider RFRLSPAARNILEKHSLDASQGKATGPRGIFTKEDALKLVQLKQTGK [T23K], for which the abundance fitness was -0.062 ± 0.075.

Regarding RFRLSPAARNILEKHSLDASQGNATGPRGIFTKEDALKLVQLKQTGK [T23N], the abundance fitness was -0.195 ± 0.066.

As for RFRLSPAARNILEKHSLDASQGCATGPRGIFTKEDALKLVQLKQTGK [T23C], the abundance fitness is -0.234 ± 0.056.

As to RFRLSPAARNILEKHSLDASQGRATGPRGIFTKEDALKLVQLKQTGK [T23R], the abundance fitness is -0.237 ± 0.045.

On to RFRLSPAARNILEKHSLDASQGSATGPRGIFTKEDALKLVQLKQTGK [T23S], for which the abundance fitness is -0.138 ± 0.044.

For the variant RFRLSPAARNILEKHSLDASQGEATGPRGIFTKEDALKLVQLKQTGK [T23E], the abundance fitness stood at 0.067 ± 0.055.

RFRLSPAARNILEKHSLDASQGMATGPRGIFTKEDALKLVQLKQTGK [T23M]: the abundance fitness is -0.231 ± 0.054.

On to RFRLSPAARNILEKHSLDASQGLATGPRGIFTKEDALKLVQLKQTGK [T23L], for which the abundance fitness is -0.258 ± 0.06.

As to RFRLSPAARNILEKHSLDASQGIATGPRGIFTKEDALKLVQLKQTGK [T23I], the abundance fitness is -0.074 ± 0.089.

As to RFRLSPAARNILEKHSLDASQGQATGPRGIFTKEDALKLVQLKQTGK [T23Q], the abundance fitness is -0.24 ± 0.087.

With RFRLSPAARNILEKHSLDASQGPATGPRGIFTKEDALKLVQLKQTGK [T23P], the abundance fitness is -0.442 ± 0.064.

On to RFRLSPAARNILEKHSLDASQGYATGPRGIFTKEDALKLVQLKQTGK [T23Y], for which the abundance fitness is -0.309 ± 0.071.

On to RFRLSPAARNILEKHSLDASQGHATGPRGIFTKEDALKLVQLKQTGK [T23H], for which the abundance fitness is -0.326 ± 0.087.

Regarding RFRLSPAARNILEKHSLDASQGWATGPRGIFTKEDALKLVQLKQTGK [T23W], the abundance fitness was -0.424 ± 0.073.

As to RFRLSPAARNILEKHSLDASQGGATGPRGIFTKEDALKLVQLKQTGK [T23G], the abundance fitness was -0.326 ± 0.045.

Turning to RFRLSPAARNILEKHSLDASQGFATGPRGIFTKEDALKLVQLKQTGK [T23F], the abundance fitness was -0.36 ± 0.072.

Take RFRLSPAARNILEKHSLDASQGDATGPRGIFTKEDALKLVQLKQTGK [T23D]: the abundance fitness is -0.058 ± 0.079.

For the variant RFRLSPAARNILEKHSLDASQGTADGPRGIFTKEDALKLVQLKQTGK [T25D], the abundance fitness is -0.582 ± 0.094.

As to RFRLSPAARNILEKHSLDASQGTAYGPRGIFTKEDALKLVQLKQTGK [T25Y], the abundance fitness was -0.86 ± 0.13.

On to RFRLSPAARNILEKHSLDASQGTAAGPRGIFTKEDALKLVQLKQTGK [T25A], for which the abundance fitness is -0.566 ± 0.072.

For RFRLSPAARNILEKHSLDASQGTALGPRGIFTKEDALKLVQLKQTGK [T25L], the abundance fitness was -0.519 ± 0.048.

With RFRLSPAARNILEKHSLDASQGTAEGPRGIFTKEDALKLVQLKQTGK [T25E], the abundance fitness is -0.765 ± 0.11.

On to RFRLSPAARNILEKHSLDASQGTACGPRGIFTKEDALKLVQLKQTGK [T25C], for which the abundance fitness is -0.423 ± 0.095.

With RFRLSPAARNILEKHSLDASQGTARGPRGIFTKEDALKLVQLKQTGK [T25R], the abundance fitness was -0.563 ± 0.053.

Consider RFRLSPAARNILEKHSLDASQGTAIGPRGIFTKEDALKLVQLKQTGK [T25I], for which the abundance fitness was -0.668 ± 0.13.

Take RFRLSPAARNILEKHSLDASQGTAWGPRGIFTKEDALKLVQLKQTGK [T25W]: the abundance fitness was -1.06 ± 0.12.

As for RFRLSPAARNILEKHSLDASQGTAVGPRGIFTKEDALKLVQLKQTGK [T25V], the abundance fitness is -0.476 ± 0.077.

As for RFRLSPAARNILEKHSLDASQGTAPGPRGIFTKEDALKLVQLKQTGK [T25P], the abundance fitness is -0.559 ± 0.064.

For the variant RFRLSPAARNILEKHSLDASQGTAFGPRGIFTKEDALKLVQLKQTGK [T25F], the abundance fitness is -0.697 ± 0.082.

Turning to RFRLSPAARNILEKHSLDASQGTAHGPRGIFTKEDALKLVQLKQTGK [T25H], the abundance fitness is -0.58 ± 0.15.

As to RFRLSPAARNILEKHSLDASQGTAKGPRGIFTKEDALKLVQLKQTGK [T25K], the abundance fitness is -0.414 ± 0.1.

Turning to RFRLSPAARNILEKHSLDASQGTAGGPRGIFTKEDALKLVQLKQTGK [T25G], the abundance fitness was -0.445 ± 0.046.

On to RFRLSPAARNILEKHSLDASQGTAMGPRGIFTKEDALKLVQLKQTGK [T25M], for which the abundance fitness is -0.423 ± 0.072.

As to RFRLSPAARNILEKHSLDASQGTAQGPRGIFTKEDALKLVQLKQTGK [T25Q], the abundance fitness was -0.522 ± 0.052.
